No end group written: not given here.
Experiments:
[1] = target: T1, HLA-A*0301 (Homo sapiens, UniProt P04439); test: purified HLA class I binding assay, A*0301; details: for A0301 (HIV A03 Motif Peptides with Binding Information): HIV POL-derived A03 motif peptides, binding value for purified HLA-A*0301, unit not given
T1 construct: endogenous in cells; host or cells: GM3107

[2] = target: HLA-A*1101 (Homo sapiens, UniProt P04439, A114D/D185E/E176A/F33Y/L180Q/S129P/T187R); test: purified HLA class I binding assay, A*1101
[3] = target: T2, HLA-B*0702 (Homo sapiens, UniProt P01889); test: purified HLA class I binding assay, B*0702; details: for B*0702 binding (HIV B07 Super Motif Peptides with Binding Information): purified HLA-B*0702, binding value without unit; for B*0702 (binding information): HIV B07 supermotif peptides, binding value for purified HLA-B*0702, unit not given
T2 construct: endogenous in cells; host or cells: GM3107

[4] = HIV A03 motif peptides, Table XVI, binding value unit not given
[5] = Table IX, HIV A03 super motif peptides, binding value, unit not given
[6] = Table XVI, binding value for purified HLA-A*0301, unit not given
[7] = HIV A11 motif peptides, Table XVII, unit not given
[8] = Table XVII, HIV A11 motif peptides, binding value for A*1101, printed without unit
[9] = Table XVII, HIV A11 motif peptides, binding value A*1101, unit not given
[10] = HIV A03 supermotif peptides, binding value, no unit given
[11] = Table XVI, HIV POL-derived peptides, unit not given
[12] = HIV A03 supermotif peptides, Table IX, unit not given
[13] = binding value to purified HLA-A*1101 in Table XVII, unit not given
[14] = Table XVII, HIV A11 motif peptides, binding value for purified HLA-A*1101, unit not given

With KIWPSIIKGR the “A0301 (binding information)” value [1, 4] was 0.0770.
KLVDFRELNK was tested, and the “A*0301 binding information” value [1, 5] was 0.5100, the “A0301 (binding information, HIV A03 motif peptides)” value [1, 6] was 0.5100 and the “A*1101 (binding information)” value [2, 7] was 0.0900. The “A*1101 (binding information)” value [2, 5] was 0.0900.
For KPCVKLTPLC, the “B*0702 binding (HIV B07 Super Motif Peptides with Binding Information)” value (shortened to “B*0702 binding”) [3] was 0.0004.
For KTKGIIRGSII, the “A*1101 (binding information)” value [2, 8] was 0.0001.
In the case of KVKQWPLTEE, the “A0301 (HIV A03 Motif Peptides with Binding Information)” value [1] is reported as 0.0750 and the “A*1101 (binding information)” value [2, 9] is reported as 0.0330.
For KVYLAWVPAII, the A0301 binding ([1]; HIV A03 motif peptides, Table XVI, column A0301, unit not given) was 8.6000.
For KVYLAWVPAIIK, the “A*0301 binding information” value [1, 10] was 8.6000 and the “A*1101 (binding information)” value [2, 10] was 2.3000.
In the case of LGIIQAQVDK, the “A0301 (binding information, HIV A03 motif peptides)” value [1, 11] is reported as 0.0007.
LGIPIIPAGLK was tested, and the “A*1101 (binding information)” value [2, 9] was 0.0150.
With LLQLIVWGIK the “A*0301 binding information” value [1, 12] was 0.0055 and the “A*1101 (binding information)” value [2, 12] was 0.0110.
With LPEKDSWTV the “B*0702 (binding information)” value [3] was 0.0001.
With LPGRWKPKM the “B*0702 (binding information)” value [3] was 0.0038.
With LPQGWKGSPA the “B*0702 (binding information)” value [3] was 0.0120.
For LTEDRWNKPQ, the “A0301 (binding information)” value ([1]; HIV A03 motif peptides, Table XVI, unit not given) was 0.0390 and the “A*1101 (binding information)” value [2, 8] was 0.0130.
With LYSAGIRK the “A*1101 (HIV A11 Motif Peptides with Binding Information)” value ([2]; binding to purified HLA-A*1101, unit not given) was 0.0054.
With MGYELIIPDK the “A0301 (binding information, HIV A03 motif peptides)” value [1, 6] was 0.0640.
MTKILIEPFR was tested, and the “A*1101 (binding information)” value [2, 9] was 0.0160.
For MVIIQAISPR, the “A0301 (binding information)” value [1, 4] was 0.1800 and the “A*1101 binding” value ([2]; HIV A11 motif peptides (GAG), Table XVII, unit not given) was 0.0670.
With NPDIVIYQYM the “B*0702 (binding information)” value [3] was 0.0005.
In the case of NPQSQGVVES, the “B*0702 (binding information)” value [3] is reported as 0.0001.
NTPVPAIK was tested, and the “A*1101 (HIV A11 Motif Peptides with Binding Information)” value [2, 13] was 0.0003.
For PCIMDGPKVK, the “A*1101 (binding information)” value [2, 9] was 0.0001.
With QIYQEPPKNLK the “A*0301 binding information” value [1, 10] was 0.2800 and the “A*1101 (binding information)” value [2, 10] was 0.2900.
QIYQIEPFKNLK was tested, and the “A0301 (binding information, HIV A03 motif peptides)” value [1, 11] was 0.2800.
With QLDCTIILEGK the “A0301 (binding information, HIV A03 motif peptides)” value [1, 6] was 0.0010 and the “A*1101 (binding information)” value [2, 9] was 0.0003.
For QPDKSESEIV, the “B*0702 (binding information)” value [3] was 0.0002.
QVRDQAEIILK was tested, and the “A0301 (HIV A03 Motif Peptides with Binding Information)” value [1] was 0.0089.
For RIVELLGRR [1273.04], the IC50 [1] was 200 nM and the IC50 [2] was 600 nM.
For SDLEIGQIIR, the “A*1101 (binding information)” value [2, 9] was 0.0001.
For SPRTLNAWYK, the “B*0702 binding” value [3] was 0.0076.
For SPTRKELQVW, the “B*0702 (binding information)” value [3] was 0.0025.
In the case of TACQGVGGPG, the “A0301 (binding information)” value [1, 4] is reported as 0.0001 and the “A*1101 (binding information)” value [2, 7] is reported as 0.0001.
TAVQMAVFIII was tested, and the “A0301 (binding information, HIV A03 motif peptides)” value [1, 6] was 0.0004 and the “A*1101 (binding information)” value [2, 9] was 0.0110.
TPGIRYQYNV was tested, and the “B*0702 (binding information)” value [3] was 0.0004.
For TPPLVKLWYQ, the “B*0702 (binding information)” value [3] was 0.0001.
TTPDKKIIQK was tested, and the “A0301 (HIV A03 Motif Peptides with Binding Information)” value [1] was 0.0002.
In the case of TYQCTIIGIK, the “A*1101 (binding information)” value [2, 14] is reported as 0.0460.
In the case of VASCDKCQLK, the “A0301 (HIV A03 Motif Peptides with Binding Information)” value [1] is reported as 0.0004, the “A*0301 binding information” value [1, 5] is reported as 0.0004 and the “A*1101 (binding information)” value [2, 5] is reported as 0.0004. The “A*1101 (binding information)” value [2, 9] was 0.0004.
In the case of VAVIIVASGY, the “A0301 (binding information, HIV A03 motif peptides)” value [1, 6] is reported as 0.0004 and the “A*1101 (binding information)” value [2, 9] is reported as 0.0001.
With VPIDPNPQEV the “B*0702 binding” value [3] was 0.0008.
VPLDKDFRKY was tested, and the “B*0702 (binding information)” value [3] was 0.0002.
With VPRRKAKII the “B*0702 (binding information)” value [3] was 0.4800.
For VPVWKEATTT, the “B*0702 binding” value [3] was 0.0022.
VTVYYGVPVW was tested, and the “A0301 (binding information, HIV A03 motif peptides)” value ([1]; purified HLA-A*0301 binding value as printed in Table XVI, unit not given) was 0.8600 and the “A*1101 (binding information)” value [2, 14] was 4.1000.
For WTVQVIPLPEK, the “A0301 (binding information)” value ([1]; HIV A03 motif peptides, binding value to HLA-A*0301 as printed, no unit given) was 0.0011.
For WTYQIYQEPF, the “A0301 (binding information, HIV A03 motif peptides)” value [1, 11] was 0.9200 and the “A*1101 (HIV A11 Motif Peptides with Binding Information)” value [2, 13] was 0.0540.
With YVDRIFYKTLR the “A*0301 binding information” value [1, 12] was 0.0003 and the “A*1101 (binding information)” value [2, 12] was 0.0006.

Reference: patent publication US20050271676A1, “Inducing cellular immune responses to human immunodeficiency virus-1 using peptide and nucleic acid compositions” (Epimmune Inc., priority 1993, published 2005)
